Here are results for 20 molecules from patent US20090324601A1 (published 2009).

Residue numbers refer to the chain shown, from its start.

B1: 3.87.1.1 (antibody, V domains shown)
VH: QVQLVESGGGVVQPGRSLRLSCAASGFTFSSYGMHWVRQAPGKGLEWVAVIWYDRSNKYYADSVKGRFTISRDNSKNTLYLQMNSLRAEDTAVYYCAGGRSRGAFDYWGQGTLVTVSS
VL: DIQMTQSPSSVSASVGDRVTITCRASQGISSWLAWYQQKPGKAPKLLIFAASSLQSGVPSRFSGSGSGTDFTLTISSLQPEDFATYYCQRTNSFPRTFGQGTKVEIK
notes: Variable regions only
B2: 3.457.3.1 (antibody, V domains shown)
VH: B1 VH with Y107F
VL: B1 VL with P40A, F49Y, A50S
notes: Variable regions only
B3: 3.772.2 (antibody, V domains shown)
VH: B1 VH with Y107F
VL: B1 VL with G28D, P40A, F49Y
notes: Variable regions only
B4: 3.472.1.1 (antibody, V domains shown)
VH: B1 VH with A61V
VL: B1 VL with G28D, N92S
notes: Variable regions only
B5: 3.805.1.3 (antibody, V domains shown)
VH: B1 VH
VL: B1 VL with K45N, F49Y, S93N
notes: Variable regions only
B6: 2.1954.2 (antibody, V domains shown)
VH: QVQLVESGGGVVQPGRSLRLSCAASGFSFSIYGMHWVRQAPGKGLEWVAVIWFDGSNKYYADSVKGRFTISRDNSKNTLYLQMNSLRAEDTALYYCARDKASYYGSGMDYWGQGTLVTVSS
VL: EIVLTQSPGTLSLSPGERATLSCRASQSVSSTYLAWYQHRPGQAPRLLISGASRRATGIPDRFSGSGSGTDFTLTISRLEPEDFAVYYCQHYGSSFTWTFGQGTKVEIK
notes: Variable regions only
B7: 3.341.1 (antibody, V domains shown)
VH: EVQLVESGGGLVQPGGSLRLSCAASGFTFSSYSMNWVRQAPGKGLEWVSFISGSSSTMYYADSVKGRFTISRDNAKNSLYLQMNSLRDEDTAVYYCARLRYFDWSYAFDIWGQGTMVTVSS
VL: DIQMTQSPSSVSTSVGDRVTITCRASQGIRSWLAWYQQRPGKAPKLLIYAASSLQNGVPSRFSGSGSGTDFTLTISSLQPEDFATYFCQQATSFPFTFGPGTKVDIN
notes: Variable regions only; the assays name clone 3.341.2; also called 3.341.2
B8: 3.818.4 (antibody, V domains shown)
VH: B7 VH with F50Y, S56T, Y101H
VL: B7 VL with R30S, N56S, D105G, N107K
notes: Variable regions only
B9: 2.351.3 (antibody, V domains shown)
VH: QVQLVQSGAEVKKPGASVKVSCKASGYTFIGYYLHWVRQAPGQGLEWMGSINPNSGGTNYAQKFQGRVTMIRDTSINTAYMELSRLRSDDTAVYYCARDKRITMVRGVHYLYYGWDVWGQGTTVTVSS
VL: DIQMTQSPSSLSASVGDRVTITCRASQVISNYLAWYQQKPGKVPQLLIYAASTLQSGVPSRFSGSGSGTDFTLTISSLQPEDVATYYCQNYKSAPWTFGQGTKVEIK
notes: Variable regions only
B10: 2.796.2 (antibody, V domains shown)
VH: QVQLVESGGGLVKPGGSLRLSCAASGFTFSDYYMNWIRQAPGKGLEWVSYISSSGSIIYYADSVKGRFTISRDNAKNSLYLQMNSLRAEDTAVYYCARDGHIAARGMDVWGQGTTVTVSS
VL: DIQMTQSPSSLSASVGDRVTITCRASQSFSRYINWYQQKPGKAPKLLIYAASSLQGGVPSRFSGSGSGTDFTLTISSLQPEDFATYYCQQTYSNPPITFGQGTRLEIK
notes: Variable regions only
B11: 2.737.1.4 (antibody, V domains shown)
VH: B10 VH with S30R, N35S, S49A, Y50F, Y80F
VL: B10 VL with F29I, S30N, R31K, G56S, S63N, L73F, S76N, S77T, N94T
notes: Variable regions only
B12: 2.2071.1.3 (antibody, V domains shown)
VH: B10 VH with H101R, A103V
VL: B10 VL with I21L, Q27H, F29I, S30N, G56S, S65N, T91S, N94T, K108T
notes: Variable regions only
B13: 2.449.1.3 (antibody, V domains shown)
VH: B10 VH with D99E, H101R
VL: B10 VL with T20S, A25P, Y49H, Q55V, I107M
notes: Variable regions only
B14: 2.2002.3 (antibody, V domains shown)
VH: QVQLVESGGGVVQPGRSLRVSCAASGFMFRSYGMHWVRQAPGKGLEWVAVIWHDGSNKNHGDSVKGRFTISRDNSKNTLYLQMNSLRAEDTAVYYCARGRLAGGGPYYYYYYGMDVWGQGTTVTVSS
VL: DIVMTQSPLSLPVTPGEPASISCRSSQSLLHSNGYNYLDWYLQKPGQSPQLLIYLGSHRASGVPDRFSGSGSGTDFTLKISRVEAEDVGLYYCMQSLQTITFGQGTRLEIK
notes: Variable regions only
B15: 2.414.2 (antibody, V domains shown)
VH: QLQLQESGPGLVKPSETLSLTCTVSGGSISSSNYYWGWIRQPPGKGLEWIGTIYYTGSTYYNPSLKSRVTISVDTSKNQFSLKLSSVTAADTAVYYCARHHWVFDYWGQGTLVTVSS
VL: EIVLTQSPDFLSVTPKEKVTITCRASQIIGSSLHWYQQKPDQSPKLLIKYASQSFSGVPSRFSGSGSGTDFTLTLNSLEAEDAATYYCHQSTILPWTFGQGTKVEIK
notes: Variable regions only
B16: 2.84.3 (antibody, V domains shown)
VH: B15 VH with S28F, N33S, T56S, S58T, P63S, K77Q
VL: B15 VL with I2V, L11Q, V19I, S31T, Q38K, D70E, L75I, A83T, I93N
notes: Variable regions only; also called 2.84.1; 2.84.2
B17: 2.998.2 (antibody, V domains shown)
VH: B15 VH with G27D, S32F, N33I, T56S, S85R, L112Q
VL: B15 VL with E1D, S7F, L11Q, I28V, L75I, A80V, I106V
notes: Variable regions only
B18: 2.542.2 (antibody, V domains shown)
VH: B15 VH with N33T, T56S, S85N
VL: B15 VL with K45N, F55V
notes: Variable regions only
B19: 3.805.1.3 (antibody, V domains shown)
VH: B1 VH
VL: B1 VL with K45N, F49Y, S93N
B20: 3.772.2 (antibody, V domains shown)
VH: B1 VH with Y107F
VL: B1 VL with G28D, P40A, F49Y

Sequence of PDGFR-beta (P09619 33-530 limits assumed): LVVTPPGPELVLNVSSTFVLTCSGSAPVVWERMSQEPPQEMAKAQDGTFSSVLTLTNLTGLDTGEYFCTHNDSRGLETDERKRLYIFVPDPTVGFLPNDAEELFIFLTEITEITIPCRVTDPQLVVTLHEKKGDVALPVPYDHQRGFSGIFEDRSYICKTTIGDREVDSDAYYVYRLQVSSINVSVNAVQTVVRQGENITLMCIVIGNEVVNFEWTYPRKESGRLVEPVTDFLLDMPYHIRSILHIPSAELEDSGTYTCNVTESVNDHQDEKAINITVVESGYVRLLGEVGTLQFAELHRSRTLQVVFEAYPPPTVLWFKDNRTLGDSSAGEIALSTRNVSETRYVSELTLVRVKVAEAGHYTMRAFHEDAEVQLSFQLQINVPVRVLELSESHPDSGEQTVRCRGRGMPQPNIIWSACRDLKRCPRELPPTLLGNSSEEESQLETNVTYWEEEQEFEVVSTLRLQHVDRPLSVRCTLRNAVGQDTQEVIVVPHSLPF
Sequence of PDGFR-alpha on MG-63 cells (P16234 24-1089): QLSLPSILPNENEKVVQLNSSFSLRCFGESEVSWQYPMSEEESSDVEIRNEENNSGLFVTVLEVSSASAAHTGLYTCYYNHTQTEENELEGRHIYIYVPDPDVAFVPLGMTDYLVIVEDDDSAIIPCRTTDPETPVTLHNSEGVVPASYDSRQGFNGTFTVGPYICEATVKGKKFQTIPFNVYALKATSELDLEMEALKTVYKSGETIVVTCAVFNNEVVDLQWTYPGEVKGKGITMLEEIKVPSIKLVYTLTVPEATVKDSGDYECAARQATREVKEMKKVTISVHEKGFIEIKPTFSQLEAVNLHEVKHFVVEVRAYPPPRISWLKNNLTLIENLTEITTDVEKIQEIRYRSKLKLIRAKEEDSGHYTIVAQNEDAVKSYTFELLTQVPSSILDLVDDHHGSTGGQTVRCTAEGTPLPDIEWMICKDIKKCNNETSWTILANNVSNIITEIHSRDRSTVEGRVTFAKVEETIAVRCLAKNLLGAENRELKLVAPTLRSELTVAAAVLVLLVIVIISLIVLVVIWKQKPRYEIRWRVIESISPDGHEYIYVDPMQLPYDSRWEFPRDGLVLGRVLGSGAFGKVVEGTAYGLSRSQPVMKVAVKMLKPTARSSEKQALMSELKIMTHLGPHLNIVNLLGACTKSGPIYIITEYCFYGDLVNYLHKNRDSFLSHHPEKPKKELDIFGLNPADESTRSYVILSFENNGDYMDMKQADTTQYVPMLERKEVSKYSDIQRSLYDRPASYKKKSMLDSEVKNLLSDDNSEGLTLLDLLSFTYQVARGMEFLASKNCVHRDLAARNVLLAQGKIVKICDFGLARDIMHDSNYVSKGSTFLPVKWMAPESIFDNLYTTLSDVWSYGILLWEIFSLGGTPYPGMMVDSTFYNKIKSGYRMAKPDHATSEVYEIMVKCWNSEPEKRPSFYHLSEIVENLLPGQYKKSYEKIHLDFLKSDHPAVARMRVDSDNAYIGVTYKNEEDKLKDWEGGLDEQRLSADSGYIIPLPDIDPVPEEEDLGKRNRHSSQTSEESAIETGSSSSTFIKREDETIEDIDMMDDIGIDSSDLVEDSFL

One experiment addresses PDGFR-beta (UniProt P09619 33-530, limits assumed). In words: method not described.
B1: the binding result is reported as “no binding”.

In the case of B2, the binding result is given as “no binding”.

For B3, the binding result is “no binding”.

Consider B4, for which the binding result is “no binding”.

On to B5, for which the binding result is listed as “no binding”.

In the case of B6, the binding result is “no binding”.

Regarding B7, the binding result is listed as “no binding”.

With B8, the binding result was “no binding”.

As to B9, the binding result is recorded as “no binding”.

Take B10: the binding result is given as “no binding”.

For B11, the binding result is on record as “no binding”.

Take B12: the binding result is reported as “no binding”.

For the molecule B13, the binding result is “no binding”.

Turning to B14, the binding result is reported as “no binding”.

B15: the binding result is given as “no binding”.

B16: the binding result is recorded as “no binding”.

Turning to B17, the binding result was “no binding”.

For B18, the binding result is listed as “no binding”.

A further experiment deals with FLT3 (UniProt P36888 27-541, limits assumed). In words: method not described.
For the molecule B1, the binding result was “no binding”.

With B2, the binding result was “no binding”.

Regarding B3, the binding result was “no binding”.

In the case of B4, the binding result is “no binding”.

As for B5, the binding result is listed as “no binding”.

For the molecule B6, the binding result is on record as “no binding”.

As to B7, the binding result is listed as “no binding”.

For B8, the binding result is “no binding”.

Take B9: the binding result is “no binding”.

For B10, the binding result is recorded as “no binding”.

On to B11, for which the binding result is “no binding”.

On to B12, for which the binding result is recorded as “no binding”.

B13: the binding result is recorded as “no binding”.

As for B14, the binding result is given as “no binding”.

Regarding B15, the binding result was “no binding”.

As to B16, the binding result is recorded as “no binding”.

Regarding B17, the binding result is on record as “no binding”.

As to B18, the binding result is “no binding”.

Another experiment deals with c-kit (UniProt P10721 26-520, limits assumed). In words: method not described.
Sequence of c-kit (P10721 26-520 limits assumed): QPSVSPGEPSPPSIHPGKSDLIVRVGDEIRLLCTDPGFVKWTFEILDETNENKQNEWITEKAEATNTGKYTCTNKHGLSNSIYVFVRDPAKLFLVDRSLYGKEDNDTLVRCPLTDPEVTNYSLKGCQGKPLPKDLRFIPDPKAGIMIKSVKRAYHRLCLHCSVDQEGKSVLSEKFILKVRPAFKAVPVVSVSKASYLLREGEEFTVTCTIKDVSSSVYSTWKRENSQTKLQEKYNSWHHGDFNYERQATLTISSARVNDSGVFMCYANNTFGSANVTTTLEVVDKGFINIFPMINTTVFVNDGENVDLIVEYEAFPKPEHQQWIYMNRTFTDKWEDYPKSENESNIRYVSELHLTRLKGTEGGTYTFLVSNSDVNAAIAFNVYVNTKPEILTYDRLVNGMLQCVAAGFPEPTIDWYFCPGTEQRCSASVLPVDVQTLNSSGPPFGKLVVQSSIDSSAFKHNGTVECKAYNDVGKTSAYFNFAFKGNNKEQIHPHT
B1: the binding result is “no binding”.

In the case of B2, the binding result was “no binding”.

For the molecule B3, the binding result was “no binding”.

Consider B4, for which the binding result was “no binding”.

Consider B5, for which the binding result was “no binding”.

Regarding B6, the binding result was “no binding”.

For the molecule B7, the binding result was “no binding”.

Consider B8, for which the binding result is on record as “no binding”.

For the molecule B9, the binding result was “no binding”.

As to B10, the binding result is “no binding”.

As for B11, the binding result is given as “no binding”.

For B12, the binding result is recorded as “no binding”.

In the case of B13, the binding result is recorded as “no binding”.

B14: the binding result is “no binding”.

Consider B15, for which the binding result is reported as “no binding”.

With B16, the binding result is reported as “no binding”.

With B17, the binding result was “no binding”.

On to B18, for which the binding result is listed as “no binding”.

The target of another experiment is CSF-1R (UniProt P07333 20-512, limits assumed). In words: method not described.
Sequence of CSF-1R (P07333 20-512 limits assumed): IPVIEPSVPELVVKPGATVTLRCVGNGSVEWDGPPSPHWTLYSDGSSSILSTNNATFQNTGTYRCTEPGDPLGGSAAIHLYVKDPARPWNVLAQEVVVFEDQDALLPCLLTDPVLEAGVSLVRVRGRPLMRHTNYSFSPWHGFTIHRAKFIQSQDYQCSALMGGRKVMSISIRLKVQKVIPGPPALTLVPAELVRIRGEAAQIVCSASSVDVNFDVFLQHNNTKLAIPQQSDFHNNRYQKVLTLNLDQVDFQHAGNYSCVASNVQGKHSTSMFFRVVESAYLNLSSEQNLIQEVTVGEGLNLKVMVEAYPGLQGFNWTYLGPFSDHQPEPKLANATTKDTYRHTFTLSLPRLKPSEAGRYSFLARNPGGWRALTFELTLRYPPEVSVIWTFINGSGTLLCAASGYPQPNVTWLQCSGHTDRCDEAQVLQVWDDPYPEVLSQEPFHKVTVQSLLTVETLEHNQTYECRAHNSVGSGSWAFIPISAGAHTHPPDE
As for B1, the binding result is on record as “no binding”.

Regarding B2, the binding result is on record as “no binding”.

Consider B3, for which the binding result was “no binding”.

In the case of B4, the binding result is given as “no binding”.

With B5, the binding result is “no binding”.

As for B6, the binding result was “no binding”.

For B7, the binding result is on record as “no binding”.

Consider B8, for which the binding result was “no binding”.

B9: the binding result was “no binding”.

Consider B10, for which the binding result is reported as “no binding”.

Consider B11, for which the binding result is “no binding”.

As for B12, the binding result is “no binding”.

In the case of B13, the binding result is recorded as “no binding”.

On to B14, for which the binding result was “no binding”.

For the molecule B15, the binding result was “no binding”.

Regarding B16, the binding result is “no binding”.

For the molecule B17, the binding result is recorded as “no binding”.

For the molecule B18, the binding result is on record as “no binding”.

The next experiment concerns the target PDGFR-alpha on MG-63 cells (human, UniProt P16234 24-1089). In words: cell-based or functional assay. Also: test concentration or dose not given here.
For the molecule B19, the “Average pTyr Inhibition” value amounted to 92%.

Turning to B20, the “Average pTyr Inhibition” value turned out to be 91%.
